As usually defined, the Kd is a measure of binding affinity in units of concentration. As usually defined, the stoichiometry N is the number of molecules, sites or subunits per partner or assembly.

In assay [1] the target is T1, MOCS2B p.Leu19Phe variant (human, UniProt O96007 1-188, p.Leu19Phe).
T1 construct: MOCS2B, large subunit of molybdopterin (MPT) synthase, human, patient variant c.57A>T (NM_004531.5; p.Leu19Phe), rs776441627; Variant found in patients (natural variant); Cloned into pET15b; also called MOCS2B L19F; MOCS2B Leu19Phe; source: Escherichia coli BL21 (pET15b), purified (ammonium sulfate precipitation, size exclusion chromatography on Superdex 200)
T1 sequence (looked up): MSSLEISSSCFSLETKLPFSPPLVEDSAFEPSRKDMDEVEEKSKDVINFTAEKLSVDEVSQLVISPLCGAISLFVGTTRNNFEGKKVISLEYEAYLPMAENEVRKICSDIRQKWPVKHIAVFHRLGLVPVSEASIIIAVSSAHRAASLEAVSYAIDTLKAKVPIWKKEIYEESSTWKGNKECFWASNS
Put plainly: ITC; VP-ITC; 20-50 uM MOCS2B in the sample cell (1.5 mL), 200-500 uM MOCS2A in the syringe; 10 mM Tris-HCl, 250 mM NaCl, pH 8.0; n = 3 experiments. The following applies: both partners purified. Background: In ITC the heat of successive injections is recorded.

The target of assay [2] is T2, MOCS2B wild-type (large subunit of MPT synthase) (human, UniProt O96007 1-188).
T2 construct: MOCS2B, large subunit of molybdopterin (MPT) synthase, human; encoded by MOCS2 transcript variant 3 (NM_004531.5); Cloned into pET15b, a vector that can add an N-terminal His tag; also called MOCS2B WT; WT MOCS2B; source: Escherichia coli BL21 (pET15b), purified (ammonium sulfate precipitation, size exclusion chromatography on Superdex 200)
T2 sequence (looked up): T1 sequence (looked up) with F19L
The description is as above. The following applies: both partners purified.

Assay [3] has as its target T1, MOCS2B p.Leu19Phe variant. The assay is described as follows: cell-based or functional assay.

Residue numbers refer to the chain shown, from its start. Numbers in names are those of the source.

B1: MOCS2A wild-type (small subunit of MPT synthase) (natural protein, human, UniProt O96033 1-88, looked up)
chain: MVPLCQVEVLYFAKSAEITGVRSETISVPQEIKALQLWKEIETRHPGLADVRNQIIFAVRQEYVELGDQLLVLQPGDEIAVIPPISGG
modifications: thiocarboxylated C-terminal tail
notes: MOCS2A, small subunit of molybdopterin (MPT) synthase, human; encoded by MOCS2 transcript variant 1 (NM_176806.4); also called MOCS2A WT; WT MOCS2A
Take B1: the equilibrium dissociation constant (Kd) was 114 ± 16 nM in assay [1] and 359 ± 47 nM in assay [2]. Besides, in assay [2], the “stoichiometry N” value came out at 1.15 ± 0.2.

B2: MOCS2A p.Ile82Phe variant (natural protein, human, UniProt O96033 1-88, looked up)
chain: B1 chain with I82F
modifications: thiocarboxylated C-terminal tail
notes: MOCS2A, small subunit of molybdopterin (MPT) synthase, human, patient variant c.244A>T (NM_176806.4; p.Ile82Phe), rs776441627; Variant found in patients (natural variant); also called MOCS2A I82F; MOCS2 p.Ile82Phe
With B2, the dissociation constant (Kd) in assay [1] is 7400 ± 2100 nM; in assay [2] it was 2800 ± 300 nM. In addition, the “in vitro MPT synthesis activity (500 pmol cPMP, 200 pmol MOCS2B, 0-500 pmol MOCS2A; HPLC Form A method), relative to WT MOCS2A/B” value in assay [3] is ~20 % of WT.

Values taken from paper PMC12289762, “A prevalent MOCS2 variant in the Roma population is associated with a novel mild form of molybdenum cofactor deficiency” (European Journal of Pediatrics, 2025).
